Assay results reported in article PMC8384840.

Tests used:
[1] = target: Lactate dehydrogenase (LDH) from rabbit muscle (rabbit) (UniProt P13491)
[2] = target: Lactate dehydrogenase (LDH) from rabbit muscle (rabbit) (UniProt P13491); assay: SEC; 2 µM luciferase (45 °C) or LDH (55 °C) heat shocked 15 min with 20 µM HSPB1 construct, or the HSPB1 construct heat shocked alone; analysed at the start (0 h) of the disaggregation reaction; Superose 12, reaction buffer, 4 °C; fractions detected by immunoblot
[3] = target: Lactate dehydrogenase (LDH) from rabbit muscle (rabbit) (UniProt P13491); remark: listed apart in the source
HSPB1-3D = HSPB1-3D (UniProt P04792); assay: SEC; 2 µM luciferase (45 °C) or LDH (55 °C) heat shocked 15 min with 20 µM HSPB1 construct, or the HSPB1 construct heat shocked alone; analysed at the start (0 h) of the disaggregation reaction; Superose 12, reaction buffer, 4 °C; fractions detected by immunoblot
[4] = target: Lactate dehydrogenase (LDH) from rabbit muscle (rabbit) (UniProt P13491); assay: SEC; native luciferase or LDH alone; Superose 12 10/300 GL, reaction buffer, 4 °C; 1 mL fractions detected by immunoblot

“HSPB1-3D (from UniProt P04792 1-205) (natural protein)” was tested, and the decrease of the optical density at 320 nm (light scattering) of 2 µM LDH aggregating at 55 °C with 20 µM HSPB1-3D, against LDH alone [1] was 90%.

In the case of “HSPB1-3D-GxG (from UniProt P04792 1-205) (natural protein)”, the percent of HSPB1-3D-GxG in the large molecular size fractions after heat shock with LDH [2] is reported as 20% and the decrease of the optical density at 320 nm (light scattering) of 2 µM LDH aggregating at 55 °C with 20 µM HSPB1-3D-GxG, against LDH alone [3] is reported as 95%.

With “Lactate dehydrogenase (LDH) from rabbit muscle” the “percent of total HSPB1-3D in the high molecular size fractions (7-9 mL) after heat shock with the substrate” value (HSPB1-3D) was ~ 20% and 40%, respectively, of the total amount of HSPB1-3D was found in high molecular size fractions.

Substance “Lactate dehydrogenase (LDH) from rabbit muscle (from UniProt P13491 1-332) (enzyme)” has a stoichiometry N [4] of 4.
